B1: LRRC4B (498-576): LRRC4B fragment, amino acids 498-576 of SEQ ID NO: 2 (SEQ ID NO: 11) (protein)
chain: QPGEEALQPRGTEKEPPGPTTDGVWGGGRPGDAAGPASSSTTAPAPRSSRPTEKAFTVPITDVTENALKDLDDVMKTTK
B2: LRRC4B (482-576): LRRC4B ectodomain fragment, amino acids 482-576 of SEQ ID NO: 2 (SEQ ID NO: 9) (protein)
chain: GGYTYFTTVTVETLETQPGEEALQPRGTEKEPPGPTTDGVWGGGRPGDAAGPASSSTTAPAPRSSRPTEKAFTVPITDVTENALKDLDDVMKTTK
B3: LRRC4B (484-576): LRRC4B fragment, amino acids 484-576 of SEQ ID NO: 2 (SEQ ID NO: 8) (protein)
chain: YTYFTTVTVETLETQPGEEALQPRGTEKEPPGPTTDGVWGGGRPGDAAGPASSSTTAPAPRSSRPTEKAFTVPITDVTENALKDLDDVMKTTK

How the values were obtained:
FAM19A5 protein [1] = biological target: T1, FAM19A5 protein (Homo sapiens, UniProt Q7Z5A7); test: ELISA binding of recombinant FAM19A5 to coated LRRC4 family ectodomains, fragments and FB peptides; details: coated protein or peptide, FAM19A5 up to 10 nM
Experimental: Next, to confirm the above co-immunoprecipitation results, an ELISA assay was used to measure the binding of the FAM19A5 protein to either the full-length ectodomain of members of LRRC4 protein family or various LRRC4B ectodomain protein fragments. Specifically, an ELISA plate was coated with one of the following LRRC4B ectodomain protein, which was conjugated to human Fc (100 nM/well): (1) full-length ectodomain of LRRC4 protein (amino acid residues 39-527 of SEQ ID NO: 1) (SEQ ID NO: 4); (2) full-length ectodomain of LRRC4B protein (amino acids 36-576 of SEQ ID NO: 2; i.e., construct #7 in Table 6) (SEQ ID NO: 5); (3) full-length ectodomain of LRRC4C protein (amino acids 45-527 of SEQ ID NO: 3) (SEQ ID NO: 6); (4) LRRC4B ectodomain fragment (amino acids 453-576 of SEQ ID NO: 2; i.e., construct #11 in Table 6) (SEQ ID NO: 7); (5) LRRC4B ectodomain fragment (amino acids 484-576 of SEQ ID NO: 2; i.e., construct #12 in Table 6) (SEQ ID NO: 8); (6) LRRC4B ectodomain fragment (amino acids 482-576 of SEQ ID NO: 2) (SEQ ID NO: 9); (7) LRRC4B ectodomain fragment (amino acids 482-497 of SEQ ID NO: 2) (SEQ ID NO: 10); and (8) LRRC4B ectodomain fragment (amino acids 498-576 of SEQ ID NO: 2; i.e., construct #13 in Table 6) (SEQ ID NO: 11). Then, recombinant FAM19A5 proteins (0.005, 0.01, 0.025, 0.05, 0.1, 0.25, 0.5, 1, 2.5, 5, and 10 nM) were added to the relevant wells, and the plates were incubated at 37° C. for 1 hour. Afterwards, the amount of LRRC4B-bound FAM19A5 protein was detected using […] anti-FAM19A5 (1-65) antibody.
As further confirmation, three synthetic polypeptides comprising amino acids 484-497 of SEQ ID NO: 2 (i.e., YTYFTTVTVETLET; SEQ ID NO: 65) were constructed: (1) FB-16 (GYTYFTTVTVETLETQ; SEQ ID NO: 17), (2) FB-20 ([…]; SEQ ID NO: 18), and (3) FB-28 ([…]; SEQ ID NO: 19). The peptides differed in their total length. The ability of these polypeptides to bind to recombinant FAM19A5 protein was assessed using an ELISA assay as described above.

[2] = biological target: binding of FAM19A5 protein to full-length ectodomain of LRRC4 protein (Homo sapiens, UniProt Q7Z5A7); test: Competitive inhibition assay, plate coated with full-length LRRC4 ectodomain; details: 100 nM/well coated full-length LRRC4 ectodomain; FAM19A5 5 ng/mL
Experimental: (§1) As described in Example 3, there appeared to be much similarity in the binding domains of the different members of the LRRC4 family. […] Then, recombinant FAM19A5 protein (5 ng/mL) was added in combination with one of the following: (i) LRRC4B (484-576) protein fragment, (ii) LRRC4B (453-576, AA) protein fragment, and (iii) synthetic FB-20 peptide. The plates were incubated at 37° C., and then, the amount of FAM19A5 protein bound to the coated LRRC4, LRRC4B, or LRRC4C proteins was measured using anti-FAM19A5 (1-65) antibody.

[3] = biological target: binding of FAM19A5 protein to full-length ectodomain of LRRC4C protein (Homo sapiens, UniProt Q7Z5A7); test: Competitive inhibition assay, plate coated with full-length LRRC4C ectodomain; details: 100 nM/well coated full-length LRRC4C ectodomain; FAM19A5 5 ng/mL
Experimental: as §1

[4] = system: mouse primary cortical neurons; test: Neurite growth of primary cortical neurons (beta-tubulin III immunostaining); type: cell-based; details: FB peptides; treated for two days, assessed at day 3
Experimental: Next, primary cortical neurons (day 1 postnatal) were cultured in vitro with varying concentrations (0.006 to 60 nM) of the LRRC4B (453-576) protein fragment (i.e., amino acid residues 453-576 of SEQ ID NO: 2; SEQ ID NO: 7), and then at day 3 post-initial culture, the effect on neurite growth was assessed by immunostaining the cells with anti-beta-tubulin III antibody. Cells cultured with DMSO (“Veh”) were used as control.
Mouse hippocampal neurons were treated with LRRC4B peptides at 1 and 2 DIV to determine neurite growth. It was measured by using 3 different parameters, which are total neurites length, number of primary and secondary neurites. After the neurons were stained with beta-tubulin III at 3 DIV, neurites length and branch points were measured using Fiji (Image J, NIH, Bethesda). Individual neurons were selected by hand and these parameters were counted using the Simple neurite tracer plugin. Mouse spinal motor neurons sampled at postnatal day 1 were treated with 10 nM of NS101 and LRRC4B-peptides (dFB-dWY-JM31 and dFB-DY-JM31) at 1 and 2 DIV and immunostained with Tau-5 antibody at 3 DIV. Total neurite length and number of somas in images were measured by Neurphology Image J plugin.

[5] = biological target: binding of FAM19A5 protein to full-length ectodomain of the LRRC4B protein (amino acids 36-576)-hFc (Homo sapiens, UniProt Q7Z5A7); test: Competitive inhibition assay, plate coated with full-length LRRC4B ectodomain; details: 100 nM coated ectodomain; FAM19A5 5 ng/mL; increasing concentrations
Experimental: Next, to further assess the role that the binding domain of the LRRC4B protein has on the interaction between FAM19A5 protein and members of the LRRC4 protein family, a competitive inhibition assay was used to determine whether different LRRC4B deletion constructs from Example 2 could inhibit the binding of FAM19A5 to the full-length ectodomain of the LRRC4B protein (i.e., amino acids 36-576 of SEQ ID NO: 2; SEQ ID NO: 5). Briefly, 100 nM of the full-length ectodomain of the LRRC4B protein was used to coat a plate, and then recombinant FAM19A5 protein (5 ng/mL) was added to the plate in combination with the following LRRC4B deletion constructs (increasing concentrations): (1) LRRC4B (453-576) (i.e., construct #11 in Table 6); (2) LRRC4B (453-576) mutant (comprises alanine substitutions at positions 488 and 489 of SEQ ID NO: 2; SEQ ID NO: 16); (3) LRRC4B (484-576) (i.e., construct #12 in Table 6); (4) LRRC4B (482-576); (5) LRRC4B (482-497); and (6) LRRC4B (498-576). The plates were incubated at 37° C., and then, the amount of FAM19A5 bound to the coated LRRC4B ectodomain protein was measured using H1RP-conjugated anti-FAM19A5 (1-65) antibody. […]

FAM19A5 protein [6] = biological target: T1, FAM19A5 protein; test: Co-immunoprecipitation of FLAG-tagged LRRC4 family constructs with recombinant FAM19A5 in HEK293 cells; type: binding; details: HEK293 cells expressing FLAG-tagged construct, recombinant FAM19A5 protein (1 μM) 30 minutes; anti-FLAG immunoprecipitation
Experimental: To better understand the interaction between FAM19A5 and members of the LRRC4 protein family, HEK293 cells were modified to express a FLAG-tagged member of the LRRC4 protein family, i.e., LRRC4C protein, LRRC4 protein, or LRRC4B protein. Then, the HEK293 cells or primary cortical neurons were treated with recombinant FAM19A5 protein (1 μM) for 30 minutes, and the binding between FAM19A5 protein and the different members of the LRRC4 protein family was assessed using both co-immunoprecipitation and immunofluorescence assays.
For the co-immunoprecipitation assay, cell lysates from the different FAM19A5-treated HEK293 cells were collected and immunoprecipitated with an anti-FLAG antibody, anti-FAM19A5 (1-65) antibody, or a human IgG antibody (control). Immunoprecipitated proteins were immunoblotted with anti-FLAG and anti-FAM19A5 (3-2) antibodies. For the immunofluorescence assay, the HEK293 cells treated with the recombinant FAM19A5 protein were immunostained with anti-FAM19A5 (3-2) (to detect FAM19A5 protein expression) and anti-FLAG antibodies (to detect member of the LRRC4 protein family). The primary cortical neurons treated with the recombinant FAM19A5 protein were immunostained with anti-FAM19A5 (3-2) and anti-LRRC4B antibodies. The nuclei were stained with Hoechst33342 (blue).
To determine the specific motif or domain of the LRRC4B protein that is responsible for the binding to a FAM19A5 protein, various FLAG-tagged LRRC4B deletion constructs were generated (see Table 6 below). HEK293 cells were transfected with the different deletion constructs and then treated with recombinant FAM19A5 protein as described in Example 1. Then, the cell lysates from the different HEK293 cells were immunoprecipitated with the anti-FLAG antibody. The immunoprecipitated proteins were immunoblotted with anti-FLAG and anti-FAM19A5 (3-2) antibodies.
As described in Example 2, all members of the LRRC4 protein family were capable of binding to FAM19A5 protein to varying degrees. Therefore, to compare the bindings domains, the amino acid sequences of the LRRC4B, LRRC4, and LRRC4C proteins were aligned. […] Therefore, to assess whether the corresponding positions of LRRC4 and LRRC4C were important in the binding of these proteins to FAM19A5 protein, cDNAs encoding either (i) LRRC4C protein fragment (amino acids 354-527 of SEQ ID NO: 3; SEQ ID NO: 66) or (ii) LRRC4 protein fragment (amino acids 353-527 of SEQ ID NO: 1; SEQ ID NO: 67) were constructed (see Table 7). HEK293 cells were transfected to express either of the protein fragments and then treated with recombinant FAM19A5 protein as described in Example 1. Then, the cell lysates from the different HEK293 cells were immunoprecipitated with the anti-FLAG antibody. The immunoprecipitated proteins were immunoblotted with anti-FLAG and anti-FAM19A5 (3-2) antibodies.

T1 sequence (Q7Z5A7 44-132): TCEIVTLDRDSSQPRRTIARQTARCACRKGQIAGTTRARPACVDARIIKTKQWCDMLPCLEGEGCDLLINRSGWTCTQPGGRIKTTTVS
Chain of binding of FAM19A5 protein to full-length ectodomain of the LRRC4B protein (amino acids 36-576)-hFc (Q7Z5A7 44-132): as above
Chain of binding of FAM19A5 protein to full-length ectodomain of LRRC4C protein (Q7Z5A7 44-132): as above
Chain of binding of FAM19A5 protein to full-length ectodomain of LRRC4 protein (Q7Z5A7 44-132): as above

Row | Molecule | binding to FAM19A5 protein (ELISA) (FAM19A5 protein [1]) | inhibition of FAM19A5 binding to coated LRRC4 protein [2] | inhibition of FAM19A5 binding to coated LRRC4C protein [3] | neurite outgrowth [4] | inhibition of FAM19A5 binding to coated full-length LRRC4B ectodomain protein [5] | binding to FAM19A5 protein (co-immunoprecipitation) (FAM19A5 protein [6])
1 | GYTYFTTVTVETLETQPGEE [FB-20] | high affinity | able to inhibit FAM19A5 protein from binding | able to inhibit FAM19A5 protein from binding | Increased neurite outgrowth |  | 
2 | GYTYFTTVTVETLETQ [FB-16] | high affinity |  |  | Increased neurite outgrowth |  | 
3 | LRRC4B (482-497): LRRC4B ectodomain fragment, amino acids 482-497 of SEQ ID NO: 2 (SEQ ID NO: 10) (GGYTYFTTVTVETLET; left off: a dimerising Fc or GST) |  |  |  |  | able to inhibit the interaction | 
4 | GYTYFTTVTVETLETQPGEKEPPGPTTD [FB-28] | high affinity |  |  | Increased neurite outgrowth |  | 
5 | B1 | failed to bind to FAM19A5 |  |  |  | much inferior in their ability to inhibit the interaction | 
6 | B2 |  |  |  |  | able to inhibit the interaction | 
7 | B3 |  | able to inhibit FAM19A5 protein from binding | able to inhibit FAM19A5 protein from binding |  | able to inhibit the interaction | able to bind to the FAM19A5 protein

— patent US20250333441A1, “POLYPEPTIDE INHIBITORS AND USES THEREOF” (Neuracle Science Co., Ltd., priority 2021, published 2025)
